Assay results: US20140004536A1 (PERSEUS PROTEOMICS, published 2014)

Molecular target: T1, human LY6D (human, UniProt Q14210 21-98, GPI anchor)
T1 construct: whole, on cells; On living cells for FCM, cell ELISA and microscopy; Solubilised from biotinylated cells with surfactant (or released by PI-PLC) for immunoprecipitation and western blot; also called E48 antigen
T1 sequence (looked up): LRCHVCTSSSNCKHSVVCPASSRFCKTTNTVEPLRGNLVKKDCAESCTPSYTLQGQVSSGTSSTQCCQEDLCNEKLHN
Experiment: confocal laser microscopy, cell ELISA and FCM on X-ray-irradiated MCF10A cells; the antigen is identified as LY6D later in the filing
Protocol: X-ray-irradiated cells and non-irradiated cells were prepared, and antibodies specific to the irradiated cells were screened for by cell ELISA. That is, reactivity of antibody to both cells was examined by ELISA. A blocking solution (5% skim milk/0.05% NaN₃/PBS) was added at 200 μL/well to both cells, followed by blocking at 37° C. for 2 hours. The blocking solution was removed and the cells were washed with PBS. The supernatant of the above antibody expression culture was added at 100 μL/well, followed by reaction at 37° C. for 1 hour. The resultant was washed five times with PBS. Rabbit anti-cp3 (1 μg/mL) diluted with PBS/0.05% Tween 20 was added at 100 μL/well, followed by reaction at 37° C. for 1 hour. The resultant was washed five times with PBS. Anti-Rabbit IgG (H+L)-HRP diluted 2000-fold with PBS/0.05% Tween 20 was further added at 100 μL/well, followed by reaction at 37° C. for 1 hour. The resultant was washed five times with PBS. […] Then, the absorbance at 492 nm was measured by SPECTRAmax340PC (Molecular Devices). Antibodies showing obvious positive reactivity specific to only the irradiated cells were selected and DNA sequences of the phages were analyzed.
Selection of clones from the antibody library was carried out as follows. […] The 20 candidates were analyzed by flow cytometry (FCM).

B1: E33-139 monoclonal antibody (scFv)
scFv: MAEVQLVESGGGLVQPGRSLRLSCAASGFTFDDYAMHWVRQAPGKGLEWVSGISWNSGSIGYADSVKGRFTISRDNAKNSLYLQMNSLRAEDTALYYCAKTGILDAFDIWGQGTTVTVSRGGGGSGGGGSGGGGSMAQSVLTQPPSVSGAPRQTVTISCSGSSSNIGQNSVTWYQRLPGEAPKLLIYYDDLLHSGVSDRFSGSKSGTSASLAISGLQSEDEAEYYCASWDDSLKGPVFGGGTKLTVLGQPKAAPSVTLFPPSSEELQANKATLVCLISDFYPGAVTVAWKADSSPVKAGVETTTPSKQSNNKYAASSYLSLTPEQWKSHKSYSCQVTHEGSTVEKTVAPTECSAR
notes: Human phage antibody from the AIMS5 library; No result is reported for the IgG; not shown: clones were tested as scFv-CL fused to cp3 or to the protein A domain (scFv-CL-P)
  binding result: binds
